Assay results: patent publication US20020142429

What was measured:
[1] = target: Dictyostelium myosin (myosin heavy chains), P08799
[2] = target: rabbit reticulocyte eEF-2, P55823

Sequence of Dictyostelium myosin (myosin heavy chains), P08799 (P08799 whole entry): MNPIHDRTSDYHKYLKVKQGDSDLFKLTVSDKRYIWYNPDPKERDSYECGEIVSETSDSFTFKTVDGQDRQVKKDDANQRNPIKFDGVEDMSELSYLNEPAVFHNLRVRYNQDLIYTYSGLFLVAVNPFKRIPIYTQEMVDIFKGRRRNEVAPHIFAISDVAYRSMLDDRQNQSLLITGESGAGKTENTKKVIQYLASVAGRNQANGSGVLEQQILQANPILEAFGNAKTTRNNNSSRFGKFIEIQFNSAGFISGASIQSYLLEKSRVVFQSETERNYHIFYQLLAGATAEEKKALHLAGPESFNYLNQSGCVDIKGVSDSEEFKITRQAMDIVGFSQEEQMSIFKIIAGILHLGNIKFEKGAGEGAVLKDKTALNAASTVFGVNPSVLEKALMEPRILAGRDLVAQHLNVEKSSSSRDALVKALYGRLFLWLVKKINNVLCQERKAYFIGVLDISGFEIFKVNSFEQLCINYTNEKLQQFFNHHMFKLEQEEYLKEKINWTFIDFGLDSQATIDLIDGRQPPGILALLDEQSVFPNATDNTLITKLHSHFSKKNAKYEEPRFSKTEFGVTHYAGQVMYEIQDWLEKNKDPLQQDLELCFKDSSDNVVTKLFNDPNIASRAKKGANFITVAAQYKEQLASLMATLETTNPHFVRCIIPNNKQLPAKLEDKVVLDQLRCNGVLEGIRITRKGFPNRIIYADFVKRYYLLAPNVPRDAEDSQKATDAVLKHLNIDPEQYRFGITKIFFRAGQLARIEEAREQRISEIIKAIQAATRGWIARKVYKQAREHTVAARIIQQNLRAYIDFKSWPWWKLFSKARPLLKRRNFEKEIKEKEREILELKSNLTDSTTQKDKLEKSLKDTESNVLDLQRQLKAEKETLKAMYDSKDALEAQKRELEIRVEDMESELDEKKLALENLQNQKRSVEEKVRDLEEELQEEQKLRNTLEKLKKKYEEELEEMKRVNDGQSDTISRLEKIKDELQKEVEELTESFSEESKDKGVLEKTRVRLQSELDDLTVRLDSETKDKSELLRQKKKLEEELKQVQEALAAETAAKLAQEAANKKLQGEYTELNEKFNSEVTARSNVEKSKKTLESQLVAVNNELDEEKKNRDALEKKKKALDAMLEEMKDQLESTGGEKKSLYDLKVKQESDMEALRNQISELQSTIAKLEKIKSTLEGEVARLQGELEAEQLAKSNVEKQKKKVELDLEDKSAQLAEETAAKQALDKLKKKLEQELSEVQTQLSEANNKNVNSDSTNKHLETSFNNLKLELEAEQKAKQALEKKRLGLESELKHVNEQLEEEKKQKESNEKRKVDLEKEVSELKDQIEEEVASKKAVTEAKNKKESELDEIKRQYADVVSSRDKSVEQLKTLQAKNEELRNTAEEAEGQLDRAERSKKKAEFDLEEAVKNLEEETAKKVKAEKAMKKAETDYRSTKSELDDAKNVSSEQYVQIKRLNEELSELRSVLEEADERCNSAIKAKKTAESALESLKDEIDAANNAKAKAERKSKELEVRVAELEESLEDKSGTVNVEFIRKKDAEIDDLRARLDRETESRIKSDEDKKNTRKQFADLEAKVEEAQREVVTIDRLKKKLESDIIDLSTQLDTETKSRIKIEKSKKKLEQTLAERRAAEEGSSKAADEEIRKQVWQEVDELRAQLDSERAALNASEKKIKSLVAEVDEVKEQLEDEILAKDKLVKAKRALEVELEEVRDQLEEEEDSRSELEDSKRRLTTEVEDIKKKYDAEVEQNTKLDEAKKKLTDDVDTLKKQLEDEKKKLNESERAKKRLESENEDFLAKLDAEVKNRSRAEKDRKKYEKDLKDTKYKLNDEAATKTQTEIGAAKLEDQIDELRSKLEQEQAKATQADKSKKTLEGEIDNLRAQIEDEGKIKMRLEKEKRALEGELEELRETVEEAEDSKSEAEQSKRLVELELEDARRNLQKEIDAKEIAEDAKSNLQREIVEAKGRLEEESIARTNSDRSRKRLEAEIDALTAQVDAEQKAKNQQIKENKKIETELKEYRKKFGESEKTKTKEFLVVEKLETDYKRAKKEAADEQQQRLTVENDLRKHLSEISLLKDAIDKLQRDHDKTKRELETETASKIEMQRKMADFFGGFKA

B1: rabbit reticulocyte eEF-2 kinase (protein)
chain: ADEDLIFRLEGLGGHQSSQTGHDGDSDADSDEEEGYFICPITDDPQSNQNVNSKINNYYSNLTKSERYGSSGSPASSFHFKEAWKHAIEKAKHMPDPWAEFHLEDIATECATRHRYNAVTGEWLQDEVLIKMASQPFGRGAMRECFRTKKLSNFLHAQQWKGASNYVAKRYIESVDRDVYFEDVRLQMEAKLWGEEYNRHKPPKQVDIMQMCIIELTERPGKPLFHLEHYIEGKYIKYNSNSGFVRDDNIRLTPQAFSHFTFERSGHQLIVVDIQGVGDLYTDPQIHTETGTDFGDGNLGVRGMALFFYSHACNRICKSMGLAPFDLSPREQDAVNQNTKLLQSAKTILRGTEEKCGSPRVRTLSGSRPPLLLRLSENSGDENMSDVTFDSLPSSPSSATPHSQKLDHLHWPVFSDLDNMAAREQDHLDNQRDSENSGDSGYPSEKRSELDDPEPREHGHSNGNRRCESDEDSLGSSGRVCVEKWNLLNPSRLHLPRASAVALEVQRLNALDLERKIGKSVLGKVHLAMVRYHEGGRFCDRDEEWDRESAVFHLEHAADLGELEAIVGLGLMYSQLPHHILADVSLKDTKENKTKGFDYLLKAAEAGDRQSMILVARAFDTGQNLSPERSRDWQEALHWYNSALEMTDCDEGGEYDGVQDEPRYTLLAREAEMLFTGGCGLDKDPQRSGDLYTQAAEAAMEAMKGRLANQYYQKAEEAWAQMEE
phosphorylation assay (substrate specificity), 10 min [1]: rabbit eEF-2 kinase cannot use myosin heavy chains as a substrate | phosphorylation assay (substrate specificity), 10 min [2]: each of these kinases is specific for their respective substrates
